The values below come from publication PMC5014727 (Structure (London, England : 1993), 2016).

B1: chemically ligated sRAGE (extracellular soluble RAGE, VC1 ligated to C2) (domain or fragment, UniProt Q15109 23-342, looked up)
chain: AQNITARIGEPLVLKCKGAPKKPPQRLEWKLNTGRTEAWKVLSPQGGGPWDSVARVLPNGSLFLPAVGIQDEGIFRCQAMNRNGKETKSNYRVRVYQIPGKPEIVDSASELTAGVPNKVGTCVSEGSYPAGTLSWHLDGKPLVPNEKGVSVKEQTRRHPETGLFTLQSELMVTPARGGDPRPTFSCSFSPGLPRHRALRTAPIQPRVWEPGCSAEVQLVVEPEGGAVAPGGTVTLTCEVPAQPSPQIHWMKDGVPLPLPPSPVLILPEIGPQDQGTYSCVATHSSHGPQESRAVSISIIEPGEEGPTAGSVGGSGLGTLA

One series has as its target sRAGE ECD (Homo sapiens) (UniProt Q15109). As to conditions: cited from earlier work.
Series [1] deals with full length RAGE fused with yellow fluorescence protein (human) (UniProt Q15109). In words: FRET or BRET.
The series “cross-linking” deals with the molecule itself. In words: cross-linking.
The series “15N NMR relaxation” deals with the molecule itself. In words: 15N NMR relaxation.
Series [2] has as its target B1. In words: ELISA. For orientation: An ELISA detects its analyte on a solid surface through an enzyme-linked reagent.

Values joined by “and” are separate entries in the source; they are usually repeats but may differ in a detail not shown here. Equal entries are not always repeated.

In general, Kd refers to a measure of binding affinity in units of concentration. Regarding sRAGE ECD (from UniProt Q15109), in the series with sRAGE ECD (Homo sapiens), the Kd was 100 µM.
In series [1], “ΔDAD-DIAPH1 fused with cyan fluorescent protein (from UniProt O60610 1-1272) (natural protein)” came in with an FRET efficiency (with Ca2+-S100B) of 10% and an FRET efficiency (without Ca2+-S100B) of 8%.
Usually stoichiometry N stands for the number of molecules, sites or subunits per partner or assembly. In the case of B1, in “cross-linking”, the “stoichiometry N” value is 2 and 3 and 4. In the series “15N NMR relaxation”, this molecule had a Kd of 120 ± 12 µM.

B2: Ca2+-S100B dimer (ligand)
chain: MSELEKAMVALIDVFHQYSGREGDKHKLKKSELKELINNELSHFLEEIKEQEVVDKVMETLDNDGDGECDFQEFMAFVAMVTTACHEFFEHE
B2: the Kd in series [2] worked out at 0.49 ± 0.043 µM.
